For assay [1], the target named is T1, ChemR23 (Mus musculus, UniProt P97468).
T1 chain: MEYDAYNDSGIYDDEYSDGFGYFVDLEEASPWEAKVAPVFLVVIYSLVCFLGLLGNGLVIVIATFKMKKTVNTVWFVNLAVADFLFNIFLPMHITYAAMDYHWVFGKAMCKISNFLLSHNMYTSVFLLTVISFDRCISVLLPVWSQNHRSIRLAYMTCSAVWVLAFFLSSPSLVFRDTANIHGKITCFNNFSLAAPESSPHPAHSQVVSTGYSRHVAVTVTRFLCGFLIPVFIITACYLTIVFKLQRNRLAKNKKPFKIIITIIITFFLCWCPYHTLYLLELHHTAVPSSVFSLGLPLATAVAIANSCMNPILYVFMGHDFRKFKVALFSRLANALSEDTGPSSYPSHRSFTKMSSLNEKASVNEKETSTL
As to the kind of experiment: radioligand saturation binding (125I-chemerin, peritoneal macrophages).

Assay [2] deals with T1, ChemR23. As to the kind of experiment: radioligand saturation binding (CHO-K1 cells).
Assay [3] concerns the target T2, ChemR23 (Homo sapiens, UniProt Q99788).
T2 chain: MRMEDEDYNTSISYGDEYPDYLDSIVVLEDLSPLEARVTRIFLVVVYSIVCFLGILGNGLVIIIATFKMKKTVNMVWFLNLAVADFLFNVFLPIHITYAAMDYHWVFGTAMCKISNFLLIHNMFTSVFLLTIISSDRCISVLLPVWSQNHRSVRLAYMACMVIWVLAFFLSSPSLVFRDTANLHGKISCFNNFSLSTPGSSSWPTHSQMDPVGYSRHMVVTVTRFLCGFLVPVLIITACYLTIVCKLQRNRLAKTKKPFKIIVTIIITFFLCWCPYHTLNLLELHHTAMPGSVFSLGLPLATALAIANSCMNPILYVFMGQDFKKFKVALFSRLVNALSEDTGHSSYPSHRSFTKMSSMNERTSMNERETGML
As to the kind of experiment: radioligand.

B1: chemerin (protein)
chain: ELTEAQRRGLQVALEEFHKHPPVQWAFQETSVESAVDTPFPAGIFVRLEFKLQQTSCRKRDWKKPECKVRPNGRKRKCLACIKLGSEDKVLGRLVHCPIETQVLREAEEHQETQCLRVQRAGEDPHSFYFPGQFAFS
modifications: 125I-labelled chemerin
With B1, the Kd was roughly 1.2 nM with ChemR23 [1] and 1.1 nM with ChemR23 [2].

B2: chemerin (protein)
chain: ELTEAQRRGLQVALEEFHKHPPVQWAFQETSVESAVDTPFPAGIFVRLEFKLQQTSCRKRDWKKPECKVRPNGRKRKCLACIKLGSEDKVLGRLVHCPIETQVLREAEEHQETQCLRVQRAGEDPHSFYFPGQFAFS
With B2, in the assay with ChemR23 [3], the Kd was 0.9 nM.

The record behind these values is publication PMC3386906 (2012).
